Assay results published in patent US20200385441A1 (TECHNION RESEARCH AND DEVELOPMENT FOUNDATION, published 2020).

Target: T1, human Melanoma-associated Chondroitin Sulfate Proteoglycan (MCSP) (human, UniProt Q6UVK1 30-2322)
T1 construct: whole, on cells; also called CSPG4; NG2
Assay: flow cytometry on B16F10-MCSP (C25) cells, detected with Strep-PE or fold-specific anti-H-2K antibody

T1 sequence (Q6UVK1 30-2322): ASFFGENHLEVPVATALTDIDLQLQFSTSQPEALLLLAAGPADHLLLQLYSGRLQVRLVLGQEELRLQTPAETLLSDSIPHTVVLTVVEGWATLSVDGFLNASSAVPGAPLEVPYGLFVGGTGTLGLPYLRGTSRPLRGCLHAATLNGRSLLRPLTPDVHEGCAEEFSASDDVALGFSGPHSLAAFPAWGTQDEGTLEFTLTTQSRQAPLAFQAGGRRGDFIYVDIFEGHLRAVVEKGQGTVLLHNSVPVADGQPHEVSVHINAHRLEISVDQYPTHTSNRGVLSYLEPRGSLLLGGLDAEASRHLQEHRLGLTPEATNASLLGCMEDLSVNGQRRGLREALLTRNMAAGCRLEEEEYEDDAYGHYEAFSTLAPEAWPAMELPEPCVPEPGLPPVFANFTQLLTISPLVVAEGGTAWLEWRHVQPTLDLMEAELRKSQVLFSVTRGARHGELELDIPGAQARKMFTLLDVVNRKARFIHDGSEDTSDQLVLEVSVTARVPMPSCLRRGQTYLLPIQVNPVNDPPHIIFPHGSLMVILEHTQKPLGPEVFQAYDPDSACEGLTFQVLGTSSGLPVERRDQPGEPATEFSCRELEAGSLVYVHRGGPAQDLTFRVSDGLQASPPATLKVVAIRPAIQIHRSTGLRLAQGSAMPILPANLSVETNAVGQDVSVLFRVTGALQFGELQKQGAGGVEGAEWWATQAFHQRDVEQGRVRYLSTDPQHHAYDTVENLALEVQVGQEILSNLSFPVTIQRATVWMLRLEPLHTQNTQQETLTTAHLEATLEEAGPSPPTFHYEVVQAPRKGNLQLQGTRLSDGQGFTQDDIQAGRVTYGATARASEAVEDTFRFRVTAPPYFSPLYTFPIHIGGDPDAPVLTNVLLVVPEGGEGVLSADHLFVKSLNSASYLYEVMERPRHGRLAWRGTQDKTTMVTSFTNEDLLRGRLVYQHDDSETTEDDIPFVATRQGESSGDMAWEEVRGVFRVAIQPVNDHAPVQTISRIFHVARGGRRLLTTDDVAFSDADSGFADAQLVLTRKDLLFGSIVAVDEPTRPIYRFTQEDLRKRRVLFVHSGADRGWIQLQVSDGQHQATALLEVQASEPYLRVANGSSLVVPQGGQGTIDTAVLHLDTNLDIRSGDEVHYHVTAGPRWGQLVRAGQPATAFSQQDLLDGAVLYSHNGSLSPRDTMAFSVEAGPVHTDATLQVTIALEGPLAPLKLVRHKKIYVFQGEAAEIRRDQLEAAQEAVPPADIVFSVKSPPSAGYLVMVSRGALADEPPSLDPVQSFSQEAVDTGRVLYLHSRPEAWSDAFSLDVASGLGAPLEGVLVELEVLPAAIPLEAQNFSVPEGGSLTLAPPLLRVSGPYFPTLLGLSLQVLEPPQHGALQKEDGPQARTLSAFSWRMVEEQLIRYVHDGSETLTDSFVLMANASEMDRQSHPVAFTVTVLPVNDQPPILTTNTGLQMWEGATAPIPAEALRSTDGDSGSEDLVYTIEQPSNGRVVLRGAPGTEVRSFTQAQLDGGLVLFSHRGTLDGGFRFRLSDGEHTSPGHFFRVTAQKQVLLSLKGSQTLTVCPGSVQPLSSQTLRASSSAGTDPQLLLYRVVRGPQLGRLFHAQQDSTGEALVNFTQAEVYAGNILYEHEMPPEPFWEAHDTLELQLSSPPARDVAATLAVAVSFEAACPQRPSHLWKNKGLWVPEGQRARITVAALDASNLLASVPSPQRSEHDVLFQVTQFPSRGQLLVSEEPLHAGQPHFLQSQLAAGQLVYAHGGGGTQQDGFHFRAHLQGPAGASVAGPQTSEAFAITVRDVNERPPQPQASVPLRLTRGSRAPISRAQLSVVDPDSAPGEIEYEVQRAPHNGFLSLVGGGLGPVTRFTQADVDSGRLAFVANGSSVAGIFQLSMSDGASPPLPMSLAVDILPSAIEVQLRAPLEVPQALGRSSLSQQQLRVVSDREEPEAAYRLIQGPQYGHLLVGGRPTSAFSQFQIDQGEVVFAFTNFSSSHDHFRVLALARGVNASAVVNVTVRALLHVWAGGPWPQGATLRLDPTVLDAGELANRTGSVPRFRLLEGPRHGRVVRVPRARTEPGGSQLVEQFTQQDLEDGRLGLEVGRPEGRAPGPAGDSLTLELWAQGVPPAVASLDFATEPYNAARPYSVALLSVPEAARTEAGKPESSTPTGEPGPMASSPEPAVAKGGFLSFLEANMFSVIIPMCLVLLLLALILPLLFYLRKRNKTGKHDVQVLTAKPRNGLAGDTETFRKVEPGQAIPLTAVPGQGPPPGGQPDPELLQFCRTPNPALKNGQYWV

B1: BA5 biotinylated peptide-H-2Kb-anti-MCSP scFv fusion protein, 20 amino acid β2M-MHC linker (peptide-MHC)
chain: RTYTYEKLGGGGSGGGGSGGGGSIQKTPQIQVYSRHPPENGKPNILNCYVTQFHPPHIEIQMLKNGKKIPKVEMSDMSFSKDWSFYILAHTEFTPTETDTYACRVKHVSMAEPKTVYWDRDMGGGGSGGGGSGGGGSGGGGSGPHSLRYFVTAVSRPGLGEPRYMEVGYVDDTEFVRFDSDAENPRYEPRARWMEQEGPEYWERETQKAKGNEQSFRVDLRTLLGYYNQSKGGSHTIQVISGCEVGSDGRLLRGYQQYAYDGCDYIALNEDLKTWTAADMAALITKHKWEQAGEAERLRAYLEGTCVEWLRRYLKNGNATLLRTDSPKAHVTHHSRPEDKVTLRCWALGFYPADITLTWQLNGEELIQDMELVETRPAGDGTFQKWASVVVPLGKEQYYTCHVYHQGLPEPLTLRWEPPPSTASGGQVKLQQSGGGLVQPGGSMKLSCVVSGFTFSNYWMNWVRQSPEKGLEWIAEIRLKSNNFGRYYAESVKGRFTISRDDSKSSAYLQMINLRAEDTGIYYCTSYGNYVGHYFDHWGQGTTVTVSSGGGGSGGGGSGGGGSDIELTQSPKFMSTSVGDRVSVTCKASQNVDTNVAWYQQKPGQSPEPLLFSASYRYTGVPDRFTGSGSGTDFTLTISNVQSEDLAEYFCQQYNSYPLTFGGGTKLEIKRAHHHHHHGLNDIFEAQKIEWH
notes: also called BA-biotin fusion molecule; biotinylated ScFv-MHC molecule
binding result: binds
